The record followed here is the nanobody polyreactivity screen of Harvey et al. (2022).

This data set in a line: yeast display, Sf9 membrane polyspecificity reagent, FACS + sequencing; frameworks hold sequencing errors. The essentials: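 Sorting gates, low and high (top ~1%), were placed on anti-HA fluorescence to track expression and on streptavidin fluorescence to track reagent binding. A clone's polyreactivity label is taken from the gate it came out of. The reagent was 10% biotinylated, detergent-solubilized Sf9 membrane, applied for 1 hour at 4 °C to galactose-induced yeast display cells.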
“QVQLEESGGGLVQGGGSLRLSCAASGSNFQDNAMGWYRQAPGKERELVAAITGRDASTYYADSVKGRFTISRDNAKNTVYLQLNCLKPEDTAVDYCYWGQGTQVTVSS”: the “polyreactivity (PSR sort gate)” value is recorded as “low polyreactivity”.
The same measure for “QVQLVESVGGLVQAAGSLRLSCAASGRIFSPYAMGWYRQAPGKESELVAAISWSGGTTYYADSVKGRFTISRDNAKNTVYLQMNSLKPEDTAVYYCAADLGYQDPLDYYWGQGTQVTVSS”: “high polyreactivity”; for “QVQLVESGGGLVQAGGSLRLSCAASGDISYIYAMGWYRQAPGKEREMVADISSSVGNTYYADSVKGRFTISRDNAKNTVYLQMNSLKPEDTAVYYCNADYVQPTESGGTYDYWGQGTQVTVSS”: “low polyreactivity”.
Regarding “QVQLVESGGGLVQAGGSLRLSCAASGYTFSVNALGWYRQAPGKERELVATINSSGGGTYYADSVKGRFTISRDNAKYTVYLQMNSLKPEDTAVFYCAADGYWYGDIYPSDYRWYDYWGQGTQVTVSS”, the “polyreactivity (PSR sort gate)” value is “low polyreactivity”.
The same measure for “QDQLVESGGGLVQAGGSLRLSCAASGITSSMNSMGWYRQAPGKERELVAAISWRGGSTYYADSVKGRFTISRDNAKNTVYLQLNSLKPEDTAVYYCAVRGKFDYWGQGTQVTVSS”: “high polyreactivity”; for “QVQLVESGGGLVQAGGSLRLSCAASGFIFPRYAMGWYRQAPGKERELVADISYSGGSTYYADSVKGRFTISRDNAKNTVYLQMNSLKPEDTAVYRPYAFGYWGQGTQVTVSS”: “high polyreactivity”; for “QVQLVESGGGLVQAGGSLRLSCAASGSIFSRNAMAWYRQAPGKERELVAAISGSGGSTYYADSVKGRFTISRDNAKNTVYLQMNSLKPEDTAVYYCNKFGYHREYDYWGQGTQVTVSS”: “low polyreactivity”.
As to “QVQLVESGGGLVQAGGSLRLSCAASGSTFTGYTMGWYRQAPGKERELVAAISRRGTSTYYADSVKGRFTISRDNAKNTVYLQMNSLKPEDTAVYYCAAYQGQKGYDYWGQGTQVTVSS”, the “polyreactivity (PSR sort gate)” value is “high polyreactivity”.
For the sequence “QVHLVESGGGLVQAGGSLRLTCAASGSTFGTYAMGWYRPAPGKERELVATIAIGGITYYADSVKGRFTISRDNAKYTVYLQMNSLKPEDTAVDYCAKDVTAPTSRSDPSGDDYWGQGTQVTVSS”, the “polyreactivity (PSR sort gate)” value was “low polyreactivity”.
The same measure for “QVQLVESGGGLGQAGGSLRLTCAASGSTFDYYAMGWYRPAPRKERELVAAISSSGSSTYYADSVKGRFTISRDIAKNTVYLQMNSLNPEDTAVYFCAIGTNYRDDYWGQGTQVTVSS”: “low polyreactivity”; for “QVQLVESGGGLVQAGGSLRLSCAASGRTFLWNAMGWYRQAPGKERELVAAISISGGNTNYADSVKGRFTISRDNAKNTVYLQINSLKPEDTAVYYCNADPRAEPGDWSYEMDYWGQGTQVTVSS”: “low polyreactivity”.
Take “QVQLVESGGGLVQAGGSLRLSCAASGFTFPDYAMGWYRQAPAKERELVAVITSGGSTYYADSVKGRFTISRDNAKNTVYLQMNSLKPEDTAVYYCATDFWDDDVEQRYDYWGQGTQVTVSS”: the “polyreactivity (PSR sort gate)” value is recorded as “low polyreactivity”.
For the sequence “QVQLVESGGGLVQAGGSLRLSCAASGYTFDLYAMGWYRQAPGKERELVADISSGGSTNYADSVKGRFTISRDNAKNTVYLQMNSLKPEDTAVYYCAVDADRSLFGQYYVSEYGGGYWGQGTQVTVSS”, the “polyreactivity (PSR sort gate)” value is “low polyreactivity”.
The result for “QVQLVESGGGLVQAGGSLRLSCAASGRTFVYYAMGWYRQAPGKERELVAAITSGGGTNYADSVKGRFTISRDNAKNSVYLQMNSLKPEDTAVYYCNADPRWYHFEYGYWGQGTQVTVSS” reads “high polyreactivity”; that for “QVQLVESGGGLVQAGGSFRLSCAASGSIFDGYAMGWYRQAPGTERELVAAISSGGDSTYYADSVKGRFTISRDNAKNTVYLQMNSLKPEDTAVYYCNADSLVGHSYDYWGQGTQVTVSS”, “low polyreactivity”.
Regarding “QVQLVESGGGLVQAGGSLRLSCAASGSTFLTNAMGWYRQAPGKERELVAAITWSGTSTYADSVKGRFTISRDNAKNTVYLQMNSLKPDDTAVYYCAAPILSFPSPYVQYDYWGQGTQVTVSS”, the “polyreactivity (PSR sort gate)” value is on record as “low polyreactivity”.
As for “QVHLVESGGGLVQAGGSLRLSCAASGSIFYYNTMGWYRQAPGKERELVAAIRFDDGSTYYADSVKGRFTISRDNAKNTVYLQMNSLKPEDTAVYYCAADWIVVSEFGLDYHMDYWGQGTQVTVSS”, the “polyreactivity (PSR sort gate)” value is on record as “low polyreactivity”.
The same measure for “QVQLQESGGGLVKAGGSLRLSCAASGNISNHNDMGWYRQAPGKEREFVAGITAGGNTNYADSVKGRFTISRDNAKNTVYLQMNSLKPEDTAVYYCAAYPDYAKSYGYWGQGTQATVSS”: “low polyreactivity”; for “QVQLVESGGGLVQAGGSLRLSCAASGRIFAWYAMGWYRQAPGKERELVAAISSGGSTNYADSVKGRFTISRDNAKNTVYLQMNSLKPEDTAVYYCNRYPVRDTGGYWGQGTQVTVSS”: “low polyreactivity”; for “QVQLVESGGGLVQAGGSLRLSCAASGRISESNDMGWYRQAPGKERELVAAISSSGGSTYYADSVKGRFTISRDNAKNTVYLQMNSLKPVDTAVYYCNAVYYRTVLKIGVYEYDYWGQGTQVTVSS”: “low polyreactivity”.
Consider “QVQLVESGGGLVQAGGSLRLSCAASGSIFATNAMGWYRQAPGKERELGASSSSGGGSTYYADSVKGRFTISRDNAKNTVYLQLNSLKPEDTADSYCARRIGPGSRPSWLETWRYPYDYWGQGTQVTVSS”, for which the “polyreactivity (PSR sort gate)” value is “low polyreactivity”.
On to “QVQLVESAGGLVQAGGSLRLSCAASGRIFVTNAMGLYRQAPGKEREFVAGISFSGDGRTYYADSVKGRFTISRDYAKNSVYFQMNSLKPEDTAVYYCAAPHRSRTHELDYWGLGTQVTVSS”, for which the “polyreactivity (PSR sort gate)” value is “low polyreactivity”.
The same measure for “QVQLVESGGGLVQAGGSLRLSCAASGNTLDWYAMGGSRQAPGKERELVAAISSAGSTSYADSVKGRFTISRDNAKNTVYLQMNSLKPEDTAVYYCNVDVYSKDANFQSFASEYDYWGQGTQVTVSS”: “low polyreactivity”; for “QVQLVESGGGLVQAGGSLRLSCAASGSIFRNNAMGWYRQAPGKERELVASITRRGGSTYYADSVKGRFTISRDNAKNTVYLQMNSLKPEDTAVYYCAATTQHRYKLNYWGQGTHVTVSS”: “high polyreactivity”.
For the sequence “QVQLVESGGGLVQAGGSLRLSCAASGFTLHSYAMGWYRQAPGKERELVAAITTGGSTYYADSVKGRFTISRDNAKNTVYLQMNSLKPEDTAVYYCAADVPGNYRKYRYGRASSHDYWGQGTQVTVSS”, the “polyreactivity (PSR sort gate)” value is recorded as “low polyreactivity”.
As to “QVQLVESGGGLVQAGGSLRVSCAASGFTFSDYAMGWYRQAPGKESELVAGISSGGSTNYADSVKGLFTISRDNAKNTVYLQMNSLKPDDTAVYYCAADLYATWSYFFTWLDYWGQGTQVTVSS”, the “polyreactivity (PSR sort gate)” value is recorded as “high polyreactivity”.
The result for “QFQLVESGGGLVQAGGSLRLSCAASGIIFVSYAMGGYIQAPGKETEFVAGINWNGGSTYYADSVKGRFTISRDNAKNTVYLQMNSLKPEDTAVYYCNAENYRVRQRSSVKYDYWGHGTQVTVSS” reads “low polyreactivity”; that for “QVQLVESGGGLVQAGGSLRLICAASGNTLGPYAMGWYRQAPGKERELVAAITWSGGITDYADSVKGRFTISRDNAKNTVYLQMNSLKPEDTAVYYCNAGPSLGIFQGTSVGLRYDYWGQGTQVTVSS”, “low polyreactivity”.
With “QFQLVDSRRGLVQAGGSLRVSCAASGSTFYIYAMGWSRQAPGKERELVARISGSGGSTYYADSVKGRFTISRDNAKNTVYLQMNSLKPEDTAVYYCAADDIYKYYQYYAFPYYRYDDWGQGTQVTVSS”, the “polyreactivity (PSR sort gate)” value is given as “low polyreactivity”.
The same measure for “QVQLVDSGGGLVQAGGSLRLSCAASGSTVTSYAMGWYRQAPGKERELVAAITYGSGTTYADSVKGRFTISRDNAKNTVYLQMNSLKPEDTAVYYCAADFYYPVLGHGFPTYEYDYWGQGTQVTVSS”: “low polyreactivity”; for “QVQLVESGGGLVQAGGSHRLSCAASGRIFVGYAMGWYRQAPGKERELVAGISGGGRTNYADSVKGRFTISRDNAKNTVYLQMNSLKPEDTAVYYCIAGGSVWYRSQRGWKGYYNQMDYWGQGTQVTVSS”: “high polyreactivity”.
For “QVQLVESGGGLVQAGGSLRLSCAASGSILTENAMGWYRQAPGKERELVAAISRSGGRTYYADSVKGRFTISRDNAKNTVYLQMNSLKPEDTAVYYCAAEYWTVGYYYSLESDYWGQGTQVTVSS”, the “polyreactivity (PSR sort gate)” value is “low polyreactivity”.
In the case of “QGQLVESGRGLVQAGGSLRLSCAASGRTFRRYGKGWYRQAPGNERELVAAITSGGGTYYEDSVKGRVTISRDNAKNTVYLQMNSLKPEDTAVYYCAAQRVYKSSPSYDFWGQGTQVTVSS”, the “polyreactivity (PSR sort gate)” value is “low polyreactivity”.
The same measure for “QVQLVESGGGLVQAGGSLRLSCADSGFTFDYYTMGWYRQAPGKDRELVAAITYSGGITYYADSVKGRFTISRDNAKNTVYLQMNSLKPEDTAVYYCNARYSPRTGRGRHVTYYYWGQGTQVTVSS”: “high polyreactivity”.
On to “QVQLVESGGGLVQAGGILRLSCAASGSIFVGNAMGGYRQAPGKERELVATISWSGGSTYYADSVKGRFTISRDNAKNTVYLQMNCLKPEDSAVYYCAKTPYRRYRYGGYTYRTYDYWGQGTQVTVSS”, for which the “polyreactivity (PSR sort gate)” value is “low polyreactivity”.
Regarding “QVQLVESGGGLVQAGGSLRLSCDASGFIFLGNAMGWYRQAPGKERELVAAISSGGSTYADSVKGRFTISRDNAKNTVYLQMNSLKPEDTSVYYCAVERAFRAQNYHEYDYWGQGTQVTVSS”, the “polyreactivity (PSR sort gate)” value is on record as “low polyreactivity”.
In the case of “QVQLVESRGGLVQAGGSLRLSCAASGRIFLRNAMVWYRQAPGKERELVASIDRSGGSTYYADSVKGRFTISRDNAKNTVYLQMNSLKPEDTAVYYCAAAYWYLYYYWGQGTQVTVAS”, the “polyreactivity (PSR sort gate)” value is reported as “low polyreactivity”.
For “QVQLVESGGGLVQAGRSLRLSCAATGLIFLLNAMGWYRQAPGKERELVAVITRVGDTNYADSVKGRFTISRDNAKNTVYLQMNSLKPEDTAVYSCAATSLTYEGYYWRQGTQVTVSS”, the “polyreactivity (PSR sort gate)” value is reported as “low polyreactivity”.
As to “QVQLEESGGGLVQAGGSLRLSCAASGSTFYANTMGSYRQAPGKERELVATISIDGSTNYADSVKGRFTISRDNAKNTVYLQMNTLKPEDTAVYYCNADVYSVLYGYWGQGTQVTVSS”, the “polyreactivity (PSR sort gate)” value is on record as “low polyreactivity”.
The result for “QVQLVESGGGLVQAGGSLRLSCAASGRTFSGNAMGWYRQAPGKERELVAAITSGSSTYYADSVKGRFTISRDNAKNTVYLQMNSLKPEDTAVYYCAARSVYGSSFLSYGYWGQGTQVTVSS” reads “high polyreactivity”.
